Among the data in patent US20260242818A1 are pollen formation in F1 anthers (PI staining, confocal microscopy); TA29b::barnase × TA29b::barstar, barstar under the same promoter as barnase (pollen grains) and pollen viability (FDA/PI assay) in successful rescue F1 flowers, TA29b::barnase × TA29a::barstar values, retold here.

The target in this assay is barnase (Bacillus amyloliquefaciens) (UniProt P00648). The assay is described as follows: cell-based or functional assay.
UniProt P00648, sequence (P00648 48-157 limits assumed): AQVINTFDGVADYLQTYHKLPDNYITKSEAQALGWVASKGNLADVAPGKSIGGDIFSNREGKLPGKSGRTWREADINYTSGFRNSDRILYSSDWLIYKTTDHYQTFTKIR

barstar (from UniProt P11540 2-90) had a pollen formation in F1 anthers (PI staining, confocal microscopy); TA29b::barnase × TA29b::barstar, barstar under the same promoter as barnase (pollen grains) of 0 and a pollen viability (FDA/PI assay) in successful rescue F1 flowers, TA29b::barnase × TA29a::barstar of 3.6%.
